Data on 1 molecule can be found in US20130039923A1 (Novo Nordisk, published 2013).

The target of assay [1] is T1, Peptide no. 51 (Figure 8A).
T1 construct: Ala-scan peptide on the array; also called Peptide no; I85A
T1 peptide: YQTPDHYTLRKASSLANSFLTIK
Nature of the assay: Ala-scan peptide array of hIL20 74-96 on cellulose; fluorescein-labelled antibody; fluorescence as OD.
Procedure: (§1) The screenings were done using fluorescence labelled antibodies. The labelling was done by gel-filtering the antibody stock against 1% NaHCO3, using NAP5 column (GE Healthcare according the manual from manufacturer. This was followed by adding 25 mole equivalents of 5(6)-carboxyfluorescein N-hydroxysuccinimide ester (Sigma, C1609) dissolved in DMSO. The coupling was allowed to continue for 2 hours followed by a gelfiltration against TRIS washing buffer (50 mM TRIS, pH=7.4, 0.15M NaCl, 0.1 M ArgHCl, 0.05% Tween 20) in order to removed uncoupled fluorescein.
(§2) Screening of arrays were done by adding 10 μl of antibody to 30 ml incubation buffer (0.5% BSA, 50 mM TRIS, pH=7.4, 0.15M NaCl, 0.1 M ArgHCl, 0.05% Tween 20). The sheets were incubated for 1-2 hours, followed by washing five times with washing buffer. […] The fluorescence intensity were measured and transformed into digits that were exported to Prism 5 (Graph Pad Software, USA) for further analysis.

Assay [2] has as its target T2, Peptide no. 43 (Figure 8A).
T2 construct: Ala-scan peptide on the array; also called Peptide no; P77A
T2 peptide: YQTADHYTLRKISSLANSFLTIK
The description is as above.
Procedure: as §1, §2

The target in assay [3] is T3, Peptide no. 57 (Figure 8A).
T3 construct: Ala-scan peptide on the array; also called Peptide no; F92A
T3 peptide: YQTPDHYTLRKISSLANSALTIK
The description is as above.
Procedure: as §1, §2

The target in assay [4] is T4, Peptide no. 58 (Figure 8A).
T4 construct: Ala-scan peptide on the array; also called Peptide no; L93A
T4 peptide: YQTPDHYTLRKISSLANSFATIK
The assay is described as above.
Procedure: as §1, §2

Assay [5] addresses T5, Peptide no. 42 (Figure 8A).
T5 construct: Ala-scan peptide on the array; also called Peptide no; T76A
T5 peptide: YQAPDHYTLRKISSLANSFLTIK
Described as above.
Procedure: as §1, §2

Assay [6] concerns the target T6, Peptide no. 48 (Figure 8A).
T6 construct: Ala-scan peptide on the array; also called Peptide no; L82A
T6 peptide: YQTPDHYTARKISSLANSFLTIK
The assay is described as above.
Procedure: as §1, §2

Assay [7] deals with T7, Peptide no. 61 (Figure 8A).
T7 construct: Ala-scan peptide on the array; also called Peptide no; K96A
T7 peptide: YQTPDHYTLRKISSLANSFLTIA
Described as above.
Procedure: as §1, §2

The target in assay [8] is T8, Peptide no. 41 (Figure 8A).
T8 construct: Ala-scan peptide on the array; also called Peptide no; Q75A
T8 peptide: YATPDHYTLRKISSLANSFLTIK
Described as above.
Procedure: as §1, §2

Assay [9] concerns the target T9, Peptide no. 53 (Figure 8A).
T9 construct: Ala-scan peptide on the array; also called Peptide no; S87A
T9 peptide: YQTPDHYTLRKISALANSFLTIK
The description is as above.
Procedure: as §1, §2

In assay [10] the target is T10, Peptide no. 60 (Figure 8A).
T10 construct: Ala-scan peptide on the array; also called Peptide no; I95A
T10 peptide: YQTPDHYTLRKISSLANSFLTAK
Described as above.
Procedure: as §1, §2

Assay [11] deals with T11, Peptide no. 54 (Figure 8A).
T11 construct: Ala-scan peptide on the array; also called Peptide no; L88A
T11 peptide: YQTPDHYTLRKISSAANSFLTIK
The description is as above.
Procedure: as §1, §2

In assay [12] the target is T12, Peptide no. 46 (Figure 8A).
T12 construct: Ala-scan peptide on the array; also called Peptide no; Y80A
T12 peptide: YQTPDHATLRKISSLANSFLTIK
Described as above.
Procedure: as §1, §2

For assay [13], the target named is T13, Peptide no. 56 (Figure 8A).
T13 construct: Ala-scan peptide on the array; also called Peptide no; S91A
T13 peptide: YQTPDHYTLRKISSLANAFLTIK
The description is as above.
Procedure: as §1, §2

For assay [14], the target named is T14, recombinant human interleukin-20 (human, UniProt Q9NYY1 25-176).
T14 construct: also called hIL20; IL20
T14 sequence: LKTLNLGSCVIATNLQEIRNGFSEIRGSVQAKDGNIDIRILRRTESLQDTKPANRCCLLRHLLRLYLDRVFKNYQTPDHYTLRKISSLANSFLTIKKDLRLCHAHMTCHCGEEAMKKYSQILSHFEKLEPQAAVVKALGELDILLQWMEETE
Briefly: SPR (Biacore 3000/T100), antibody amine-coupled on CM5, recombinant hIL20 injected 3.125-100 nM, 1:1 Langmuir, 25 C; antibody from HEK293. (Surface plasmon resonance follows binding to a sensor surface in real time, without labels.)
Procedure: Affinity studies were performed using a direct binding procedure, with the monoclonal antibody covalently coupled via free amine groups to the carboxymethylated dextrane membrane (CM5) on the sensor chip surface. […] The kinetic parameters for the interaction could be calculated using a 1:1 interaction Langmuir fitting model.
The purified monoclonal antibodies were immobilized in individual flow cells on a CM5 type sensor chip. Immobilizations were performed using a standard amine coupling procedure, aiming for an immobilization level of 1000 Resonance Units (RU). The antibodies were diluted to 5 μg/ml in 10 mM NaAc pH 5.0. […] Association (injection) was 3 min., followed by a 30 min. dissociation (wash) period. Flow rate was 30 μl/min. Experiments were performed at 25° C. Regeneration of the surface following each cycle, was accomplished by injection of 30 sec. pulse of 10 mM Glycin-HCl pH 1.8, at a 30 ul/min flow rate. Detection in all flow cells simultaneously. Flow cell No. 1 contained no immobilized antibody, and was used for subtraction of background and bulk. […] Data was inspected for mass-transport limitations prior to calculation of the kinetic parameters. Experiments were performed on Biacore 3000 and T100 instruments. Data was evaluated using Biaeval 4.1 and Biacore T100 evaluation software.

B1: human anti-hIL20 monoclonal antibody 15D2 (antibody, V domains shown)
VH: QVQLVQSGAEVKRPGASVKVSCKASGYTFTNDIIHWVRQAPGQRLEWMGWINAGYGNTQYSQNFQDRVSITRDTSASTAYMELISLRSEDTAVYYCAREPLWFGESSPHDYYGMDVWGQGTTVTVSS
VL: AIQLTQSPSSLSASVGDRVTITCRASQGISSALAWYQQKPGKAPKLLIYDASSLESGVPSRFSGSGSGTDFTLTISSLQPEDFATYYCQQFNSYPLTFGGGTKVEIKR
notes: also called 15D2-wt; 15D2 wild-type
What is called Kd is the constant that tells how readily two partners part at equilibrium. What is called koff is a measure of how fast the partners let go of each other. As a reminder, the kon is the rate constant with which the complex forms. Take B1: the binding result in assay [1], in assay [2], in assay [3], in [4], in [5] and in [6] was “binds” in each case. The binding result in [7], in assay [8], in assay [9], in assay [10], in [11] and in assay [12] was “binds” throughout. For the same molecule, in assay [13], the binding result is “binds”. Besides, in [14], the Kd came to 0.032 nM. Moreover, the koff in assay [14] was 6.3e-05 s⁻¹. Moreover, the kon in [14] is 1.9e+06 M⁻¹ s⁻¹.
